The source of these data is US20240124535A1 (Molecular Partners, published 2024).

As a reminder, the Kd is the constant that tells how readily two partners part at equilibrium. What is called EC50 is the concentration that produces a half-maximal response.

Positions count from the first letter of the chain named.

B1: Protein #2 (SEQ ID NO: 2 with a His-tag (SEQ ID NO: 1) fused to its N-terminus) (designed binder)
chain: MRGSHHHHHHGSDLGKKLLEAARAGQDDEVRELLKAGADVNAKDYFSHTPLHLAARNGHLKIVEVLLKAGADVNAKDFAGKTPLHLAANEGHLEIVEVLLKAGADVNAQDIFGKTPADIAADAGHEDIAEVLQKAA
B2: Protein #3 (SEQ ID NO: 3 with a His-tag (SEQ ID NO: 1) fused to its N-terminus) (designed binder)
chain: B1 chain with N89A, E90D
B3: Protein #4 (SEQ ID NO: 4 with a His-tag (SEQ ID NO: 1) fused to its N-terminus) (designed binder)
chain: B1 chain with N89D, E90A

T2 sequence (A2V9Z4 25-608 limits assumed): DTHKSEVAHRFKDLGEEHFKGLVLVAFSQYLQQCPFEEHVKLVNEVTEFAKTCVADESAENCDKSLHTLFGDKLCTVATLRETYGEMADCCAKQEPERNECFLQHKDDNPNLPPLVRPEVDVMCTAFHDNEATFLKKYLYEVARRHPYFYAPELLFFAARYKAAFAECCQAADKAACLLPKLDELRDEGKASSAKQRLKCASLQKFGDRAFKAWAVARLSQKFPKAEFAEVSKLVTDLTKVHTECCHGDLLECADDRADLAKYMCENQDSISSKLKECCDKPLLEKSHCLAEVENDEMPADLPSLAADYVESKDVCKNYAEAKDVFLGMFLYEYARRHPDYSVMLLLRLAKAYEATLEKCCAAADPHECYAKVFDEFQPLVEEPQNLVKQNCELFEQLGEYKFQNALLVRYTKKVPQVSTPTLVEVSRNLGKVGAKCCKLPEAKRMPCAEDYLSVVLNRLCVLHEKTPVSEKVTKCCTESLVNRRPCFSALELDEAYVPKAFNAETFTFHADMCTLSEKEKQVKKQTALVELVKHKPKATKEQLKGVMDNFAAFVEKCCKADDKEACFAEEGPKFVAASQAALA

The target in one experiment is T1, human serum albumin (human, UniProt P02768 25-609). Put plainly: SPR, ProteOn system (BioRad), in PBS. Here is the method: Affinity of proteins of Example 2 to human serum albumin were determined by SPR measurements using a ProteOn system (BioRad) in PBS according to standard procedures known to the person skilled in the art.
T1 sequence (P02768 25-609 limits assumed): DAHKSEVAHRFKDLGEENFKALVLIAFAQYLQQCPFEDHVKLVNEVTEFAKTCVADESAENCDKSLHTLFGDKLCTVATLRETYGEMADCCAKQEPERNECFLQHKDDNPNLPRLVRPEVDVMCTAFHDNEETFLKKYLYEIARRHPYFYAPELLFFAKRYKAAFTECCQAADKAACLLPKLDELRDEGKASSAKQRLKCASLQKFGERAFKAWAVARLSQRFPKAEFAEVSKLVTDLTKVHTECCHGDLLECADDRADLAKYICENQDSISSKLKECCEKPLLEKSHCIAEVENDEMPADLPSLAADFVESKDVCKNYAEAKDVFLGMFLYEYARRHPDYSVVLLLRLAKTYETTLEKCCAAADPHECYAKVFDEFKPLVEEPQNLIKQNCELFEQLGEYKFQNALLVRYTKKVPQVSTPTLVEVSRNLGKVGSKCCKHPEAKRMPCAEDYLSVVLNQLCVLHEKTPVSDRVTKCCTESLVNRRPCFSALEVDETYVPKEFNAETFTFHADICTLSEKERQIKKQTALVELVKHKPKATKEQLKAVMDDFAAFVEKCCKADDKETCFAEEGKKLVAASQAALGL
In general terms: Surface plasmon resonance follows binding to a sensor surface in real time, without labels.
Take B1: the Kd was found to be 31.1 nM.
The same measure, in the same setting: the result for B2 reads 35.5 nM; that for B3, 34.4 nM.

The next experiment concerns the target T2, cynomolgus monkey serum albumin (cynomolgus monkey (Macaca fascicularis), UniProt A2V9Z4 25-608). As to the kind of experiment: ELISA, serum albumin immobilized on plate, in PBST-C. The method, then: (§1) Samples of proteins of Example 2 were subjected to ELISA serum albumin cross-reactivity analyses as described in WO2016156596. 100 μl of 20 nM serum albumin in PBS per well were immobilized in a Maxisorp plate (Nunc, Denmark) overnight at 4° C. After washing 5 times with 300 μl PBST (PBS supplemented with 0.1% Tween 20), the wells were blocked with 300 μl PBST-C(PBST supplemented with 0.25% casein) for 2 h at room temperature with shaking at 450 rpm on a Titramax 1000 shaker (Heidolph, Germany). After washing 5 times as described above, 100 μl/well or 50 μl/well proteins #2, #3, or #4 (concentrations ranging from 100 nM to 0.01 pM for each protein) in PBST-C were applied and incubated for 2 h at room temperature with shaking at 450 rpm. After washing 5 times as described above, binding of the proteins was detected using 100 μl rabbit anti-designed ankyrin repeat domain monoclonal antibody in PBST-C for 1 h at room temperature with shaking at 450 rpm. After washing 5 times as described above, bound anti-designed ankyrin repeat domain antibody was detected using 100 μl/well goat anti-rabbit IgG-HRP conjugate in PBST-C for 1 h at room temperature with shaking at 450 rpm. After washing 5 times as described above, the ELISA was then developed using 100 μl BM soluble blue POD substrate (Roche, Switzerland), diluted 1:4 in water. The reaction was stopped after 5 min using 100 μl 1 M H2504. The OD (OD 450 nm-OD 620 nm) was then recorded. EC 50 values were determined using Graph Pad Prism (Table 3). […] The measured EC₅₀ values for cynomolgus monkey serum albumin binding are below 20 nM for proteins #2, #3, and #4.
For orientation: In an ELISA, binding on a coated surface is turned into a signal by an enzyme label.
B1 yielded an EC50 of under 20 nM.
On the same count and under the same terms, the result for B2 reads under 20 nM; that for B3, under 20 nM.

The target of a further experiment is T1, human serum albumin. The experiment is described as above. Here is the method:
as §1
For B1, the EC50 is under 1 nM.
In turn, B2 returned an EC50 of under 1 nM.
On the same count and under the same terms, the result for B3 reads under 1 nM.

In a further experiment the target is T3, mouse serum albumin (mouse, UniProt P07724 25-608). The experiment is described as above. Here is the method: as §1
The molecule B1 returned an EC50 of under 30 nM.
On the same count and under the same terms, the result for B2 reads under 30 nM; that for B3, under 30 nM.

The next experiment has as its target T2, cynomolgus monkey serum albumin. Described as above. This is another data set of the same source. Here is the method: as §1
B1 had a 50% effective concentration (EC50) of 2.8 nM.
On the same count and under the same terms, the result for B2 reads 6.8 nM; that for B3, 13.1 nM.

The next experiment has as its target T1, human serum albumin. The description is as above. The source holds these as a separate data set. The method, then:
as §1
For the molecule B1, the concentration giving a half-maximal response (EC50) was found to be 0.32 nM.
Molecule B2 displayed an EC50 of 0.64 nM.
Still for that read-out and setting: for B3 the value was 0.84 nM.

For a further experiment, the target named is T3, mouse serum albumin. The description is as above. The source holds these as a separate data set. Here is the method:
as §1
Molecule B1 returned an EC50 of 9.6 nM.
Still for that read-out and setting: the result for B2 reads 14.7 nM; that for B3, 24 nM.
